{"source": "paper PMC3174958", "target": "EPO-hyFc (human)", "assay": "Western blotting; purified EPO-hyFc blotted with anti-EPO and anti-human IgG antibodies; gel conditions not told", "data": [{"substance": "EPO-hyFc (Fc fusion)", "values": [{"measurement": "stoichiometry N", "value": 2}]}]}
